Test results published in PMC7345789.
Numbering of substitutions follows the chain as printed.

B1: SHP2 N-SH2, Q06124 (protein)
chain: WFHPNITGVEAENLLLTRGVDGSFLARPSKSNPGDFTLSVRRNGAVTHIKVQNTGDYYDLYGGEKFATLAELVQYYMEHHGQLKEKNGDVIELKYPL
B2: SHP2 N-SH2, Q06124 (protein)
chain: B1 chain with V40A, V51I
B3: SHP2 N-SH2, Q06124 (protein)
chain: B1 chain with V51I, T68S
B4: SHP2 N-SH2, Q06124 (protein)
chain: B1 chain with V51I, I91V
B5: SHP2 N-SH2, Q06124 (protein)
chain: B1 chain with V51I, V90A
B6: SHP2 N-SH2, Q06124 (protein)
chain: B1 chain with T7S, V51I
B7: SHP2 N-SH2, Q06124 (protein)
chain: B1 chain with V51I, V73A
B8: SHP2 N-SH2, Q06124 (protein)
chain: B1 chain with V51I, L83A
B9: SHP2 N-SH2, Q06124 (protein)
chain: B1 chain with V51I, A70G
B10: SHP2 N-SH2, Q06124 (protein)
chain: B1 chain with I49V, V51I
B11: SHP2 N-SH2, Q06124 (protein)
chain: B1 chain with V9A, V51I
B12: SHP2 N-SH2, Q06124 (protein)
chain: B1 chain with L14A, V51I
B13: SHP2 N-SH2, Q06124 (protein)
chain: B1 chain with V51I, L60A
B14: SHP2 N-SH2, Q06124 (protein)
chain: B1 chain with T47S, V51I
B15: SHP2 N-SH2, Q06124 (protein)
chain: B1 chain with A45G, V51I
B16: SHP2 N-SH2, Q06124 (protein)
chain: B1 chain with V51I, T54S
B17: SHP2 N-SH2, Q06124 (protein)
chain: B1 chain with V20A, V51I
B18: SHP2 N-SH2, Q06124 (protein)
chain: B1 chain with I6V, V51I
B19: SHP2 N-SH2, Q06124 (protein)
chain: B1 chain with A26G, V51I
B20: SHP2 N-SH2, Q06124 (protein)
chain: B1 chain with V51I, L69A
B21: SHP2 N-SH2, Q06124 (protein)
chain: B1 chain with T37S, V51I
B22: SHP2 N-SH2, Q06124 (protein)
chain: B1 chain with T17S, V51I
B23: SHP2 N-SH2, Q06124 (protein)
chain: B1 chain with V51I, A67G

Target: Gab2 (Homo sapiens)
Experiment: flow

| Kd [nM] | Binder |
| --- | --- |
| 30 | B1 |
| 230 | B2 |
| 110 | B3 |
| 100 | B4 |
| 130 | B5 |
| 80 | B6 |
| 190 | B7 |
| 730 | B8 |
| 110 | B9 |
| 150 | B10 |
| 160 | B11 |
| 170 | B12 |
| 860 | B13 |
| 10 | B14 |
| 70 | B15 |
| 120 | B16 |
| 100 | B17 |
| 80 | B18 |
| 70 | B19 |
| 210 | B20 |
| 5 | B21 |
| 100 | B22 |
| 170 | B23 |
